Measured values published in publication PMC4046963.

Biological target: Neisseria gonorrhoeae MtrE outer membrane channel (Neisseria gonorrhoeae) (UniProt Q51006)
Test: crystal structure; sitting-drop vapor diffusion, 20% PEG 400, 0.2 M sodium acetate pH 4.6, 0.25 M MgSO4, 2% OG, 0.05% DDM; space group P6(3)22, one protomer per asymmetric unit; 3.29 Å

## Neisseria gonorrhoeae MtrE outer membrane channel (from UniProt Q51006 1-467) (natural protein)
  stoichiometry N: 3
